“And” between values parts separate entries of the source, which are not always exact repeats. Identical values can stand only once.
How the values were obtained:
[1] = biological target: the molecule itself; assay: […], sodium citrate 20 mM pH 4.0, […]
[2] = biological target: the molecule itself; assay: static light scattering + SEC

B1: Full-length Ovine PrP 23-234 (Ala-136, Arg-154, Gln-171 variant) (natural protein)
chain: not shown
notes: also called OvPrP; ARQ PrP
stoichiometry N [1]: 25 to 70 mer | koff [2]: 0.00403 s⁻¹ and 0.0038 s⁻¹ and 0.01 s⁻¹
